Test results as given in publication PMC4451460.

Columns and labels:
[1] = biological target: HTT(1-17) peptide, the 17 N-terminal residues of huntingtin (human) (UniProt P42858); test: ITC; isothermal calorimetry of C4 scFv with HTT(1-17) and truncated peptides; conditions not shown (Fig. S3)
[2] = biological target: truncated peptide HTT(1-14) (human) (UniProt P42858); test: as above

Kd [1]: 50 nM
fold decrease in binding affinity compared to HTT(1-17) [2]: 10 fold
Substance: C4 single-chain Fv antibody (C4 scFv)
